The experiment concerns the target T1, FcγRIIIa (human, UniProt P08637 17-208).
T1 construct: extracellular domain; also called 3a; FcγRIIIa extracellular domain
The experiment in a line: SPR (Biacore).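 Also: antibody variants captured on an SPR sensor chip, with FcγRIIIa passed over as analyte in HBS-EP+ buffer at 25 °C.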

The results in this text go back to US20260167699A1 (Chugai, published 2026).

T1 sequence (P08637 other isoform, or with tags, fused parts or gaps): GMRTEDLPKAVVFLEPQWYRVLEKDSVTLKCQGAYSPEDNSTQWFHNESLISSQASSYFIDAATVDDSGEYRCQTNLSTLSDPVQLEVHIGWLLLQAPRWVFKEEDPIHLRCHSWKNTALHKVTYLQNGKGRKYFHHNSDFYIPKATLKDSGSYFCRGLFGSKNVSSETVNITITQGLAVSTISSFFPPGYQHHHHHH
Description: The antibody of interest was analyzed for its interaction with FcγR using a BiaCore™ T100, BiaCore™ A100, or BiaCore™ 4000 surface plasmon resonance system (GE Healthcare Japan Corp.). The running buffer used was HBS-EP+ (GE Healthcare Japan Corp.). The assay temperature was set to 25° C. The sensor chips used were: a chip prepared by immobilizing antigenic peptides onto Series S Sensor Chip CM5 (GE Healthcare Japan Corp.) by the amine coupling method; a chip prepared by immobilizing antigenic peptides biotinylated in advance onto Series S Sensor Chip SA (certified) (GE Healthcare Japan Corp.) through their interaction; a chip prepared by immobilizing protein L (ACTIGEN, BioVision, Inc.) onto Series S Sensor Chip CM5 (GE Healthcare Japan Corp.); and a chip prepared by immobilizing protein A/G (Thermo Fisher Scientific K.K.) onto Series S Sensor Chip CM5 (GE Healthcare Japan Corp.). The antibody of interest was captured onto any of these chips and allowed to interact with FcγR diluted with a running buffer. The antibody captured on the chip was washed off through the reaction of 10 mM glycine-HCl (pH 1.5) to regenerate the chip, which was repetitively used.

B1: GpH7-A5/GpH7-B3 variant E333_08L/GpL16-k0 (antibody, human IgG1, kappa)
heavy 1: not shown
heavy 2: not shown
light: DIVMTQSPLSLPVTPGEPASISCQASESLVHSNRNTYLHWYLQKPGQSPQLLIYKVSNRFSGVPDRFSGSGSGTDFTLKISRVEAEDVGVYYCSQNTHVPPTFGQGTKVEIERTVAAPSVFIFPPSDEQLKSGTASVVCLLNNFYPREAKVQWKVDNALQSGNSQESVTEQDSKDSTYSLSSTLTLSKADYEKHKVYACEVTHQGLSSPVTKSFNRGEC
notes: copies: 1 + 1 + 2
Turning to B1, the “He/Con 3a” value is 102 % of GpH7-A5/GpH7-B3/GpL16-k0.

B2: GpH7-A5/GpH7-B3 variant G236_03V/GpL16-k0 (antibody, human IgG1, kappa)
heavy 1: not shown
heavy 2: not shown
light: DIVMTQSPLSLPVTPGEPASISCQASESLVHSNRNTYLHWYLQKPGQSPQLLIYKVSNRFSGVPDRFSGSGSGTDFTLKISRVEAEDVGVYYCSQNTHVPPTFGQGTKVEIERTVAAPSVFIFPPSDEQLKSGTASVVCLLNNFYPREAKVQWKVDNALQSGNSQESVTEQDSKDSTYSLSSTLTLSKADYEKHKVYACEVTHQGLSSPVTKSFNRGEC
notes: copies: 1 + 1 + 2
As for B2, the “He/Con 3a” value was 53.8 % of GpH7-A5/GpH7-B3/GpL16-k0.

B3: GpH7-A5/GpH7-B3 variant E333_09D/GpL16-k0 (antibody, human IgG1, kappa)
heavy 1: not shown
heavy 2: not shown
light: DIVMTQSPLSLPVTPGEPASISCQASESLVHSNRNTYLHWYLQKPGQSPQLLIYKVSNRFSGVPDRFSGSGSGTDFTLKISRVEAEDVGVYYCSQNTHVPPTFGQGTKVEIERTVAAPSVFIFPPSDEQLKSGTASVVCLLNNFYPREAKVQWKVDNALQSGNSQESVTEQDSKDSTYSLSSTLTLSKADYEKHKVYACEVTHQGLSSPVTKSFNRGEC
notes: copies: 1 + 1 + 2
With B3, the “He/Con 3a” value was 115 % of GpH7-A5/GpH7-B3/GpL16-k0.

B4: GpH7-A5/GpH7-B3 variant G236_20W/GpL16-k0 (antibody, human IgG1, kappa)
heavy 1: not shown
heavy 2: not shown
light: DIVMTQSPLSLPVTPGEPASISCQASESLVHSNRNTYLHWYLQKPGQSPQLLIYKVSNRFSGVPDRFSGSGSGTDFTLKISRVEAEDVGVYYCSQNTHVPPTFGQGTKVEIERTVAAPSVFIFPPSDEQLKSGTASVVCLLNNFYPREAKVQWKVDNALQSGNSQESVTEQDSKDSTYSLSSTLTLSKADYEKHKVYACEVTHQGLSSPVTKSFNRGEC
notes: copies: 1 + 1 + 2
For the molecule B4, the “He/Con 3a” value was 126 % of GpH7-A5/GpH7-B3/GpL16-k0.

B5: GpH7-A5/GpH7-B3 variant G236_13S/GpL16-k0 (antibody, human IgG1, kappa)
heavy 1: not shown
heavy 2: not shown
light: DIVMTQSPLSLPVTPGEPASISCQASESLVHSNRNTYLHWYLQKPGQSPQLLIYKVSNRFSGVPDRFSGSGSGTDFTLKISRVEAEDVGVYYCSQNTHVPPTFGQGTKVEIERTVAAPSVFIFPPSDEQLKSGTASVVCLLNNFYPREAKVQWKVDNALQSGNSQESVTEQDSKDSTYSLSSTLTLSKADYEKHKVYACEVTHQGLSSPVTKSFNRGEC
notes: copies: 1 + 1 + 2
On to B5, for which the “He/Con 3a” value was 60.3 % of GpH7-A5/GpH7-B3/GpL16-k0.

B6: GpH7-A5/GpH7-B3 variant E333_14T/GpL16-k0 (antibody, human IgG1, kappa)
heavy 1: not shown
heavy 2: not shown
light: DIVMTQSPLSLPVTPGEPASISCQASESLVHSNRNTYLHWYLQKPGQSPQLLIYKVSNRFSGVPDRFSGSGSGTDFTLKISRVEAEDVGVYYCSQNTHVPPTFGQGTKVEIERTVAAPSVFIFPPSDEQLKSGTASVVCLLNNFYPREAKVQWKVDNALQSGNSQESVTEQDSKDSTYSLSSTLTLSKADYEKHKVYACEVTHQGLSSPVTKSFNRGEC
notes: copies: 1 + 1 + 2
Consider B6, for which the “He/Con 3a” value is 100 % of GpH7-A5/GpH7-B3/GpL16-k0.

B7: GpH7-A5/GpH7-B3 variant G237_03V/GpL16-k0 (antibody, human IgG1, kappa)
heavy 1: not shown
heavy 2: not shown
light: DIVMTQSPLSLPVTPGEPASISCQASESLVHSNRNTYLHWYLQKPGQSPQLLIYKVSNRFSGVPDRFSGSGSGTDFTLKISRVEAEDVGVYYCSQNTHVPPTFGQGTKVEIERTVAAPSVFIFPPSDEQLKSGTASVVCLLNNFYPREAKVQWKVDNALQSGNSQESVTEQDSKDSTYSLSSTLTLSKADYEKHKVYACEVTHQGLSSPVTKSFNRGEC
notes: copies: 1 + 1 + 2
Regarding B7, the “He/Con 3a” value was 51.3 % of GpH7-A5/GpH7-B3/GpL16-k0.

B8: GpH7-A5/GpH7-B3 variant E333_12R/GpL16-k0 (antibody, human IgG1, kappa)
heavy 1: not shown
heavy 2: not shown
light: DIVMTQSPLSLPVTPGEPASISCQASESLVHSNRNTYLHWYLQKPGQSPQLLIYKVSNRFSGVPDRFSGSGSGTDFTLKISRVEAEDVGVYYCSQNTHVPPTFGQGTKVEIERTVAAPSVFIFPPSDEQLKSGTASVVCLLNNFYPREAKVQWKVDNALQSGNSQESVTEQDSKDSTYSLSSTLTLSKADYEKHKVYACEVTHQGLSSPVTKSFNRGEC
notes: copies: 1 + 1 + 2
For the molecule B8, the “He/Con 3a” value is 92.2 % of GpH7-A5/GpH7-B3/GpL16-k0.

B9: GpH7-A5/GpH7-B3 variant E333_11K/GpL16-k0 (antibody, human IgG1, kappa)
heavy 1: not shown
heavy 2: not shown
light: DIVMTQSPLSLPVTPGEPASISCQASESLVHSNRNTYLHWYLQKPGQSPQLLIYKVSNRFSGVPDRFSGSGSGTDFTLKISRVEAEDVGVYYCSQNTHVPPTFGQGTKVEIERTVAAPSVFIFPPSDEQLKSGTASVVCLLNNFYPREAKVQWKVDNALQSGNSQESVTEQDSKDSTYSLSSTLTLSKADYEKHKVYACEVTHQGLSSPVTKSFNRGEC
notes: copies: 1 + 1 + 2
On to B9, for which the “He/Con 3a” value was 97.7 % of GpH7-A5/GpH7-B3/GpL16-k0.

B10: GpH7-A5/GpH7-B3 variant G236_07I/GpL16-k0 (antibody, human IgG1, kappa)
heavy 1: not shown
heavy 2: not shown
light: DIVMTQSPLSLPVTPGEPASISCQASESLVHSNRNTYLHWYLQKPGQSPQLLIYKVSNRFSGVPDRFSGSGSGTDFTLKISRVEAEDVGVYYCSQNTHVPPTFGQGTKVEIERTVAAPSVFIFPPSDEQLKSGTASVVCLLNNFYPREAKVQWKVDNALQSGNSQESVTEQDSKDSTYSLSSTLTLSKADYEKHKVYACEVTHQGLSSPVTKSFNRGEC
notes: copies: 1 + 1 + 2
Regarding B10, the “He/Con 3a” value is 55.6 % of GpH7-A5/GpH7-B3/GpL16-k0.

B11: GpH7-A5/GpH7-B3 variant E333_20W/GpL16-k0 (antibody, human IgG1, kappa)
heavy 1: not shown
heavy 2: not shown
light: DIVMTQSPLSLPVTPGEPASISCQASESLVHSNRNTYLHWYLQKPGQSPQLLIYKVSNRFSGVPDRFSGSGSGTDFTLKISRVEAEDVGVYYCSQNTHVPPTFGQGTKVEIERTVAAPSVFIFPPSDEQLKSGTASVVCLLNNFYPREAKVQWKVDNALQSGNSQESVTEQDSKDSTYSLSSTLTLSKADYEKHKVYACEVTHQGLSSPVTKSFNRGEC
notes: copies: 1 + 1 + 2
In the case of B11, the “He/Con 3a” value was 104 % of GpH7-A5/GpH7-B3/GpL16-k0.
